Measurements as given in PMC6239184, “Dynamic association of human mRNP proteins with mitochondrial tRNAs in the cytosol”.

B1: mt tRNAGly (structured_RNA)
RNA: ACUCUUUUAGUAUAAAUAGUACCGUUAACUUCCAAUUAACUAGUUUUGACAACAUUCAAAAAAGAGUACCA
B2: mt tRNALeu(UUR) (structured_RNA)
RNA: GUUAAGAUGGCAGAGCCCGGUAAUCGCAUAAAACUUAAAACUUUACAGUCAGAGGUUCAAUUCCUCUUCUUAACACCA

Legend:
YBX3 = YBX3 (Homo sapiens, UniProt P16989 1-372); assay: EMSA; EMSA: 1 fmol labeled RNA, 0.1-4 pmol protein, 5% native acrylamide gel; buffer, salt, pH, temperature not given (refers to Marnef et al. 2016); conditions: protein: recombinant, tags: Strep-tag (N-terminal, in 5' primer), Ni-NTA purified, tRNA fold
YBX1 = YBX1 (Homo sapiens, UniProt P67809 1-324); assay: as above; conditions: protein: recombinant, tags: Strep-tag (N-terminal, in 5' primer), Ni-NTA purified, tRNA fold
YBX1, sequence (P67809 whole entry): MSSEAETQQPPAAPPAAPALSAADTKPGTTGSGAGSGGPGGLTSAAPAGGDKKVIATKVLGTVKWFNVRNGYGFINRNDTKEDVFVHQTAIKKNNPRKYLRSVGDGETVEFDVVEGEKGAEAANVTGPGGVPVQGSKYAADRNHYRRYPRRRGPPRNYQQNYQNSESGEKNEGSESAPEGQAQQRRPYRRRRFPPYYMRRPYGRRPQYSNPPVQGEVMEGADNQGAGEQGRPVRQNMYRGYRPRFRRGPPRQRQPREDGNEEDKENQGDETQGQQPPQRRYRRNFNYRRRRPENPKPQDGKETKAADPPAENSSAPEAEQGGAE

YBX3, sequence (P16989 whole entry): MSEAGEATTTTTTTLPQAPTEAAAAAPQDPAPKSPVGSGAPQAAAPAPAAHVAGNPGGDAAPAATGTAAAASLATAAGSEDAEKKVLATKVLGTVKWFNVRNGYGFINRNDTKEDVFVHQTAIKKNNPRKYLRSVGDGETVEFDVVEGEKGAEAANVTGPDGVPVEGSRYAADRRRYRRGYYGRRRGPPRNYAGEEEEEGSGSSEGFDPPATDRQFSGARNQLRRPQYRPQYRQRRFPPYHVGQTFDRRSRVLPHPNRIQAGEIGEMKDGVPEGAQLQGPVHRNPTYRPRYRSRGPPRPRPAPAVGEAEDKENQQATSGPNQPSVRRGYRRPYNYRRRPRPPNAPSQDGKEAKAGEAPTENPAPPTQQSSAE

Binder	binding result (YBX3)	binding result (YBX1)	binding result (YBX3; label: internal 32P-CTP)	binding result (YBX1; label: internal 32P-CTP)
B1	binds	binds	–	–
B2	–	–	binds	binds
